The values below come from patent US20170233472A1 (MacroGenics, published 2017).

Sequences and labels used below:
B1: DART-2 (bispecific antibody)
chain 1: QLVLTQSPSASASLGSSVKLTCTLSSGHKTDTIDWYQQQPGKAPRYLMKLEGSGSYNKGSGVPDRFGSGSSSGADWYLTISSLQSEDEADYYCGTDYPGNYLFGGGTQLTVLGGGGSGGGGEVQLVESGGGLVQPGGSLRLSCAASGFTFSTYAMNWVRQAPGKGLEWVGRIRSKYNNYATYYADSVKGRFTISRDDSKNSLYLQMNSLKTEDTAVYYCVRHGNFGNSYVSWFAYWGQGTLVTVSSGGCGGGKVAALKEKVAALKEKVAALKEKVAALKE
chain 2: QAVVTQEPSLTVSPGGTVTLTCRSSTGAVTTSNYANWVQQKPGQAPRGLIGGTNKRAPWTPARFSGSLLGGKAALTITGAQAEDEADYYCALWYSNLWVFGGGTKLTVLGGGGSGGGGQEQLVESGGGLVQPGGSLRLSCAASGFTFSDYYMSWVRQAPGKGLEWVATIYPSSGKTYYADSVKGRFTISSDNAKNSLYLQMNSLRAEDTAVYYCARDSYADDAALFDIWGQGTTVTVSSGGCGGGEVAALEKEVAALEKEVAALEKEVAALEK
notes: ROR1×CD3 two chain diabody; VL(2): R71W; VH: parental
B2: DART-12 (bispecific antibody)
chain 1: B1 chain 1 with S70I
chain 2: B1 chain 2
notes: ROR1×CD3 two chain diabody; VL(12): S66I/R71W; VH: parental
B3: DART-10 (bispecific antibody)
chain 1: B1 chain 1 with W76R, Y97N
chain 2: B1 chain 2
notes: ROR1×CD3 two chain diabody; VL(10): Y92N; VH: parental
B4: DART-3 (bispecific antibody)
chain 1: B1 chain 1 with K49N, W76R
chain 2: B1 chain 2
notes: ROR1×CD3 two chain diabody; VL(3): K49N; VH: parental
B5: DART-4 (bispecific antibody)
chain 1: B1 chain 1 with S16G, W76R
chain 2: B1 chain 2
notes: ROR1×CD3 two chain diabody; VL(4): S17G; VH: parental
B6: DART-22 (bispecific antibody)
chain 1: B1 chain 1
chain 2: B1 chain 2 with F186L
notes: ROR1×CD3 two chain diabody; VL(2): R71W; VH(1): F67L
B7: DART-20 (bispecific antibody)
chain 1: B1 chain 1
chain 2: B1 chain 2 with A215T
notes: ROR1×CD3 two chain diabody; VL(2): R71W; VH(3): A93T
B8: DART-14 (bispecific antibody)
chain 1: B1 chain 1 with W76R
chain 2: B1 chain 2 with F186L
notes: ROR1×CD3 two chain diabody; VL: parental; VH(1): F67L
B9: DART-5 (bispecific antibody)
chain 1: B1 chain 1 with N57S, W76R
chain 2: B1 chain 2
notes: ROR1×CD3 two chain diabody; VL(5): N54S; VH: parental
B10: DART-16 (bispecific antibody)
chain 1: B1 chain 1 with W76R
chain 2: B1 chain 2 with A215T
notes: ROR1×CD3 two chain diabody; VL: parental; VH(3): A93T
B11: DART-6 (bispecific antibody)
chain 1: B1 chain 1 with S70I, W76R
chain 2: B1 chain 2
notes: ROR1×CD3 two chain diabody; VL(6): S66I; VH: parental
B12: DART-17 (bispecific antibody)
chain 1: B1 chain 1 with W76R
chain 2: B1 chain 2 with N195Y
notes: ROR1×CD3 two chain diabody; VL: parental; VH(4): N76Y
B13: DART-21 (bispecific antibody)
chain 1: B1 chain 1 with S70I, W76R
chain 2: B1 chain 2 with A215T
notes: ROR1×CD3 two chain diabody; VL(6): S66I; VH(3): A93T
B14: DART-13 (bispecific antibody)
chain 1: B1 chain 1 with S70I, Y97N
chain 2: B1 chain 2
notes: ROR1×CD3 two chain diabody; VL(13): S66I/R71W/Y92N; VH: parental
B15: DART-11 (bispecific antibody)
chain 1: B1 chain 1 with Y97N
chain 2: B1 chain 2
notes: ROR1×CD3 two chain diabody; VL(11): R71W/Y92N; VH: parental

Residue numbers refer to the chain shown, from its start. Numbers in names are those of the source. A value given as a limit tells only on which side of the number the result lay.

In this test the target is T1, His-tagged soluble human ROR1 (shROR1-His) (human, UniProt Q01973 30-406).
T1 construct: also called ROR1 protein; immobilized ROR1; not shown: His-Tag
T1 sequence (Q01973 30-406): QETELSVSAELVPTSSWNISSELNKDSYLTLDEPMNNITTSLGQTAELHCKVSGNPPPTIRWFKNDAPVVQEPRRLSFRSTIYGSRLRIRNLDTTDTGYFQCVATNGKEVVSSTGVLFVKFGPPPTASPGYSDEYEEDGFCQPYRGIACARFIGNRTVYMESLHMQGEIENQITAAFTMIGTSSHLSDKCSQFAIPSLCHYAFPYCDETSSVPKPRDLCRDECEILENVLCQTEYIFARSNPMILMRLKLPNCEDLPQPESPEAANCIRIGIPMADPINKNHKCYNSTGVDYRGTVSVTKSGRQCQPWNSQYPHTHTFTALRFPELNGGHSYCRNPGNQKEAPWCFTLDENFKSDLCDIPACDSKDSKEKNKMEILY
The experiment in a line: SPR (Biacore), diabody captured via anti-E/K-coil, shROR1-His as analyte. Here is the method:
The binding kinetics of DART-1 to DART-6, DART-10 to DART-17, DART-20 to DART-33 was investigated using Biacore analysis in which ROR1 protein was passed over immobilized diabodies. Briefly, each diabody construct was captured on immobilized anti-E/K-coil surface and was incubated with shROR1-His at 25 and 100 nM, and the kinetics of binding were determined via Biacore analysis.
Turning to B1, binding was put at a Kd of 1.5 nM and the “fold enhancement of binding relative to DART-1” value was greater than 2 fold.
Turning to B2, the Kd was 1.7 nM.
Same read-out and setting: under B3 stands 2.7 nM; under B4, 4 nM; under B5, 3.7 nM.
Same read-out and setting: under B6 stands 1.3 nM; under B7, 1.3 nM.
The same measure, in the same setting: under B8 stands 4.5 nM.
In turn, B9 gave a Kd of 6 nM.
Take B10: binding was put at a Kd of 4.3 nM.
On the same count and under the same terms, under B11 stands 5.7 nM.
In turn, B12 returned a Kd of 3.7 nM.
Still for that read-out and setting: in the case of B13 it was 4.8 nM; in that of B14, 1.4 nM; in that of B15, 1.2 nM.
